The numbers were not newly measured in paper PMC6474356, which cites them from elsewhere.

Read-outs that look alike come from different tables or passages of the source.

By Kd is commonly meant a measure of binding affinity in units of concentration.

Data set [1] has as its target calmodulin (Homo sapiens) (UniProt P0DP23).
Data set [2] shares this target. This is another data set of the same source.

As for eEF-2K (from UniProt O00418), the Kd in data set [1] is 17 nM.

Take “eEF-2K CBD peptide CBD (from UniProt O00418)”: the Kd in data set [2] was 245 nM.
